Measurements reported in patent US20180339020A1.

Target: ephrin B3 expressed on CHO cells
Test: inferred by the filing from ELISA, Octet and flow cytometry taken together

- concentration that would saturate: > 10 µg/mL
Substance: wild-type (WT) human EphA4-Fc (Fc fusion)
